Data published in patent US20050054615A1, “Calmodulin independent activation of nitric oxide synthase” (Rensselaer Polytechnic Institute, priority 2002, published 2005).

Target: T1, eNOS (Bos taurus, UniProt P29473, DEL841-841)
T1 construct: made in house; host or cells: E. coli BL21 (pCWori+)
Test: NO synthase activity per heme of eNOS mutants
Assay type: biochemical, bovine
Conditions: fully activated state (Ca+2/CaM)
Protocol: Expression and purification of wild type and mutant bovine eNOS and rat nNOS. Expression and purification of bovine eNOS and rat nNOS were performed using procedures similar to those previously described (Martasek, P.,et al., (1996) Biochem Biophys Res Commun. 219(2); 359-65). Transformed cells were broken with a French press, and after centrifugation to remove cell debris the supernatant was loaded on a 2′5′ADP affinity column, washed, and eluted with 2′AMP as described (id). […] Enzyme sample concentrations were determined on the basis of heme concentration, except in heme free preparations, where the flavin concentration was measured. UV-visible absorbance spectra were recorded on an Aminco DW-2000 spectrophotometer.
Nitric Oxide production was assayed using the Griess assay as adapted for microtiter plates (Gross, S. S. (1996) Methods Enzymol. 268:159-68); calcium dependence was measured using EDTA as a Ca+2 buffer system. […] NADPH-dependent cytochrome c reduction was measured spectrophotometrically as described by McMillan et al (McMillan, K., et al., (1992) Proc Nat. Acad. Sci. U.S.A. 89, 11141-11145), adapted to 96-well plate microtiter plates. […] Cytochrome c reduction was monitored at 550 nm (ε=2.1×104/M). […] Assays were performed on a SpectraMAX plate reader (Molecular Devices).

B1: G841 deletion mutant: bovine eNOS small insertion mutant with G841 deleted (protein, UniProt P29473 2-1205, looked up, variant G841*)
Nitric oxide synthase 3: GNLKSVGQEPGPPCGLGLGLGLGLCGKQGPASPAPEPSRAPAPATPHAPDHSPAPNSPTLTRPPEGPKFPRVKNWELGSITYDTLCAQSQQDGPCTPRCCLGSLVLPRKLQTRPSPGPPPAEQLLSQARDFINQYYSSIKRSGSQAHEERLQEVEAEVASTGTYHLRESELVFGAKQAWRNAPRCVGRIQWGKLQVFDARDCSSAQEMFTYICNHIKYATNRGNLRSAITVFPQRAPGRGDFRIWNSQLVRYAGYRQQDGSVRGDPANVEITELCIQHGWTPGNGRFDVLPLLLQAPDEAPELFVLPPELVLEVPLEHPTLEWFAALGLRWYALPAVSNMLLEIGGLEFSAAPFSGWYMSTEIGTRNLCDPHRYNILEDVAVCMDLDTRTTSSLWKDKAAVEINLAVLHSFQLAKVTIVDHHAATVSFMKHLDNEQKARGGCPADWAWIVPPISGSLTPVFHQEMVNYILSPAFRYQPDPWKGSATKGAGITRKKTFKEVANAVKISASLMGTLMAKRVKATILYASETGRAQSYAQQLGRLFRKAFDPRVLCMDEYDVVSLEHEALVLVVTSTFGNGDPPENGESFAAALMEMSGPYNSSPRPEQHKSYKIRFNSVSCSDPLVSSWRRKRKESSNTDSAGALGTLRFCVFGLGSRAYPHFCAFARAVDTRLEELGGERLLQLGQGDELCGQEEAFRGWAKAAFQASCETFCVGEEAKAAAQDIFSPKRSWKRQRYRLSTQAEGLQLLPGLIHVHRRKMFQATVLSVENLQSSKSTRATILVRLDTAGQEGLQYQPGDHIGICPPNRPGLVEALLSRVEDPPPPTESVAVEQLEKGSPGPPPSWVRDPRLPPCTLRQALTFFLDITSPPSPRLLRLLSTLAEEPSEQQELETLSQDPRRYEEWKWFRCPTLLEVLEQFPSVALPAPLLLTQLPLLQPRYYSVSSAPNAHPGEVHLTVAVLAYRTQDGLGPLHYGVCSTWLSQLKTGDPVPCFIRGAPSFRLPPDPYVPCILVGPGTGIAPFRGFWQERLHDIESKGLQPAPMTLVFGCRCSQLDHLYRDEVQDAQERGVFGRVLTAFSREPDSPKTYVQDILRTELAAEVHRVLCLERGHMFVCGDVTMATSVLQTVQRILATEGDMELDEAGDVIGVLRDQQRYHEDIFGLTLRTQEVTSRIRTQSFSLQERHLRGAVPWAFDPPGPDTPGP
  activity per heme in the fully activated state: 85 % of wild type
